Test results reported in publication PMC7226325.

Target: recombinant Tepary bean lectin (rTBL-1) (Phaseolus acutifolius (Tepary bean))
Assay: SEC; ENrich SEC 650 column, calibrated with gel filtration standard; 200 uL of protein at 10 mg/mL; 20 mM MES pH 6.5, 100 mM NaCl

recombinant Tepary bean lectin (rTBL-1) (natural protein)
stoichiometry N: 4
